Series [1] deals with Recombinant human transferrin (human) (UniProt P02787). Briefly: SEC-MALS; Superdex 200 Increase 10/30 GL, 4 °C, mobile phase 38 mM NaH2PO4, 12 mM Na2HPO4, 150 mM NaCl, 200 ppm NaN3, pH 7.4; samples from all tested formulation conditions.
The next series concerns P02787. The series is described as follows: SAXS; concentration series at pH 4.0-8.0 and with NaCl or arginine at pH 5.0/6.5; estimated MW from scattering; volume fractions from OLIGOMER with monomer crystal structures and a SASREFMX dimer model. Particulars: other: SAXS.

Several values for one entry are separate records, joined by “and”; a condition that tells them apart may be missing. Identical values can stand only once.

The source of these data is publication PMC7337065.

Sequence of Recombinant human transferrin (P02787 20-698): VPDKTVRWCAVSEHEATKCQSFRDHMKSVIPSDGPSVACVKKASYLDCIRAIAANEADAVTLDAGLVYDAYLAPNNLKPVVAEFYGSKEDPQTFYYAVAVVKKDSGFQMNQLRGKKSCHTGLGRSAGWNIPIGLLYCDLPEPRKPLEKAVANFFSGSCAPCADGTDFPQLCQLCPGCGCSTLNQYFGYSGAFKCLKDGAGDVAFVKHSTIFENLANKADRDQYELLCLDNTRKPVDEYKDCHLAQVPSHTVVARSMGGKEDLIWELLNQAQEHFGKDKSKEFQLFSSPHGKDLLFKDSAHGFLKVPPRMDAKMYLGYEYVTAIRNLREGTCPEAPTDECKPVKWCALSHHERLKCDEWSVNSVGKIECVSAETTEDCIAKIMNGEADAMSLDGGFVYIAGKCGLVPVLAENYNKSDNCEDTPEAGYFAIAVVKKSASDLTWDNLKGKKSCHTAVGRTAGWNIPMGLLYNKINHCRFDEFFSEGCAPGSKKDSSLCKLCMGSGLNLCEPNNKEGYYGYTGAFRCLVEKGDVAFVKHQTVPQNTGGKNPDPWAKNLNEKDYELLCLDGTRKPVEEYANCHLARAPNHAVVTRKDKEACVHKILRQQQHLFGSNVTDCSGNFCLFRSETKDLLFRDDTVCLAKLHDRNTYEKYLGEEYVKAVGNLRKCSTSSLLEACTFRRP

As usually defined, the stoichiometry N is the number of molecules, sites or subunits per partner or assembly. Turning to “Recombinant human transferrin (from UniProt P02787 20-698) (natural protein)”, in series [1], the percent dimer worked out at 12%; the percent trimer was 2%; the stoichiometry N is 2 and 3.

Regarding Recombinant human transferrin, in the series on P02787, the volume fraction of dimer + aggregates (NaCl) was 0.5, the volume fraction of dimer + aggregates (acetate) was 0.2, the volume fraction of dimer + aggregates (arginine) was 0.4 and the volume fraction of dimer + aggregates (histidine) was 0.2.
